The assay addresses T1, soluble human CD3ε chain (human, UniProt P07766 23-126, limits assumed).
T1 construct: the text says soluble human CD3ε chain; also called human CD3 epsilon chain
The assay is described as follows: SPR (Biacore). A general note: Surface plasmon resonance follows binding to a sensor surface in real time, without labels.

This note sets out measurements from patent US20210388110A1 (published 2021).

T1 sequence (P07766 23-126 limits assumed): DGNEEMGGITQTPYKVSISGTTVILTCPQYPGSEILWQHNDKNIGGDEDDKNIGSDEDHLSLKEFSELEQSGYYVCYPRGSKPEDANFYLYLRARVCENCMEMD

B1: TR01H082-E22Hh/none-Hi-Kn010G3/L0203-k0 (antibody, human IgG1, kappa, L234A L235A, N297A)
heavy: QVQLVESGGGLVQPGRSLRLSCAASGFTFSNAWMHWVRQAPGKGLEWVAQIKDKSQNYATYYAESVKGRFTISRDDSKNSLYLQMNSLKTEDTAVYYCRYVHYAAGYGVDAWGQGTTVTVSSASTKGPSVFPLAPSSKSTSGGTAALGCLVKDYFPEPVTVSWNSGALTSGVHTFPAVLQSSGLYSLSSVVTVPSSSLGTQTYICNVNHKPSNTKVDKKVEPKSCDKTHTCPPCPAPEAAGGPSVFLFPPKPKDTLMISRTPEVTCVVVDVSHEDPEVKFNWYVDGVEVHNAKTKPREEQYASTYRVVSVLTVLHQDWLNGKEYKCKVSNKALPAPIEKTISKAKGQPREPQVYTLPPSRCELTKNQVSLSCAVKGFYPSDIAVEWESNGQPENNYKTTPPVLDSDGSFFLVSKLTVDKSRWQQGNVFSCSVMHEALHNHYTQKSLSLSPDYKDDDDK
chain: EPKSSDKTHTCPPCPAPELLGGPSVFLFPPKPKDTLMISRTPEVTCVVVDVSHEDPEVKFNWYVDGVEVHNAKTKPREEQYNSTYRVVSVLTVLHQDWLNGKEYKCKVSNKALPAPIEKTISKAKGQPREPQVCTLPPSRDELTKNQVSLWCLVKGFYPSDIAVEWESNGQPENNYKTTPPVLDSDGSFFLYSKLTVDKSRWQQGNVFSCSVMHEALHNRYTQKSLSLSP
light: DIVMTQSPLSLPVTPGEPASISCRSSQSPVHSNRNTYIHWYQQKPGQAPRLLIYKVSNRFSGVPDRFSGSGSGTDFTLKISRVEAEDVGVYYCGQGTQVPYTFGQGTKLEIKRTVAAPSVFIFPPSDEQLKSGTASVVCLLNNFYPREAKVQWKVDNALQSGNSQESVTEQDSKDSTYSLSSTLTLSKADYEKHKVYACEVTHQGLSSPVTKSFNRGEC
notes: single-arm
Take B1: the Kd (as a rule, the free concentration of one partner at which half of the binding sites on the other are occupied at equilibrium, for simple one-to-one binding) came out at 40.7 nM.

B2: TR01H082-E22Hh/none-Hi-Kn010G3/L0258-k0 (antibody, human IgG1, kappa, L234A L235A, N297A)
heavy: QVQLVESGGGLVQPGRSLRLSCAASGFTFSNAWMHWVRQAPGKGLEWVAQIKDKSQNYATYYAESVKGRFTISRDDSKNSLYLQMNSLKTEDTAVYYCRYVHYAAGYGVDAWGQGTTVTVSSASTKGPSVFPLAPSSKSTSGGTAALGCLVKDYFPEPVTVSWNSGALTSGVHTFPAVLQSSGLYSLSSVVTVPSSSLGTQTYICNVNHKPSNTKVDKKVEPKSCDKTHTCPPCPAPEAAGGPSVFLFPPKPKDTLMISRTPEVTCVVVDVSHEDPEVKFNWYVDGVEVHNAKTKPREEQYASTYRVVSVLTVLHQDWLNGKEYKCKVSNKALPAPIEKTISKAKGQPREPQVYTLPPSRCELTKNQVSLSCAVKGFYPSDIAVEWESNGQPENNYKTTPPVLDSDGSFFLVSKLTVDKSRWQQGNVFSCSVMHEALHNHYTQKSLSLSPDYKDDDDK
chain: EPKSSDKTHTCPPCPAPELLGGPSVFLFPPKPKDTLMISRTPEVTCVVVDVSHEDPEVKFNWYVDGVEVHNAKTKPREEQYNSTYRVVSVLTVLHQDWLNGKEYKCKVSNKALPAPIEKTISKAKGQPREPQVCTLPPSRDELTKNQVSLWCLVKGFYPSDIAVEWESNGQPENNYKTTPPVLDSDGSFFLYSKLTVDKSRWQQGNVFSCSVMHEALHNRYTQKSLSLSP
light: DIVMTQSPLSLPVTPGEPASISCRSSQPPVHSNRNTYLHWYQQKPGQAPRLLIYKVSNRFSGVPDRFSGSGSGTDFTLKISRVEAEDVGVYYCTQGTQVPYTFGQGTKLEIKRTVAAPSVFIFPPSDEQLKSGTASVVCLLNNFYPREAKVQWKVDNALQSGNSQESVTEQDSKDSTYSLSSTLTLSKADYEKHKVYACEVTHQGLSSPVTKSFNRGEC
notes: single-arm
B2 came in with a Kd of 47 nM.

B3: TR01H082-E22Hh/none-Hi-Kn010G3/L0212-k0 (antibody, human IgG1, kappa, L234A L235A, N297A)
heavy: QVQLVESGGGLVQPGRSLRLSCAASGFTFSNAWMHWVRQAPGKGLEWVAQIKDKSQNYATYYAESVKGRFTISRDDSKNSLYLQMNSLKTEDTAVYYCRYVHYAAGYGVDAWGQGTTVTVSSASTKGPSVFPLAPSSKSTSGGTAALGCLVKDYFPEPVTVSWNSGALTSGVHTFPAVLQSSGLYSLSSVVTVPSSSLGTQTYICNVNHKPSNTKVDKKVEPKSCDKTHTCPPCPAPEAAGGPSVFLFPPKPKDTLMISRTPEVTCVVVDVSHEDPEVKFNWYVDGVEVHNAKTKPREEQYASTYRVVSVLTVLHQDWLNGKEYKCKVSNKALPAPIEKTISKAKGQPREPQVYTLPPSRCELTKNQVSLSCAVKGFYPSDIAVEWESNGQPENNYKTTPPVLDSDGSFFLVSKLTVDKSRWQQGNVFSCSVMHEALHNHYTQKSLSLSPDYKDDDDK
chain: EPKSSDKTHTCPPCPAPELLGGPSVFLFPPKPKDTLMISRTPEVTCVVVDVSHEDPEVKFNWYVDGVEVHNAKTKPREEQYNSTYRVVSVLTVLHQDWLNGKEYKCKVSNKALPAPIEKTISKAKGQPREPQVCTLPPSRDELTKNQVSLWCLVKGFYPSDIAVEWESNGQPENNYKTTPPVLDSDGSFFLYSKLTVDKSRWQQGNVFSCSVMHEALHNRYTQKSLSLSP
light: DIVMTQSPLSLPVTPGEPASISCRPSQSPVHSNRNTYLHWYQQKPGQAPRLLIYKVSNRFSGVPDRFSGSGSGTDFTLKISRVEAEDVGVYYCYQGTQVPYTFGQGTKLEIKRTVAAPSVFIFPPSDEQLKSGTASVVCLLNNFYPREAKVQWKVDNALQSGNSQESVTEQDSKDSTYSLSSTLTLSKADYEKHKVYACEVTHQGLSSPVTKSFNRGEC
notes: single-arm
On to B3, for which binding was characterised by a dissociation constant (Kd) of 4.75 nM.

B4: TR01H082-E22Hh/none-Hi-Kn010G3/L0260-k0 (antibody, human IgG1, kappa, L234A L235A, N297A)
heavy: QVQLVESGGGLVQPGRSLRLSCAASGFTFSNAWMHWVRQAPGKGLEWVAQIKDKSQNYATYYAESVKGRFTISRDDSKNSLYLQMNSLKTEDTAVYYCRYVHYAAGYGVDAWGQGTTVTVSSASTKGPSVFPLAPSSKSTSGGTAALGCLVKDYFPEPVTVSWNSGALTSGVHTFPAVLQSSGLYSLSSVVTVPSSSLGTQTYICNVNHKPSNTKVDKKVEPKSCDKTHTCPPCPAPEAAGGPSVFLFPPKPKDTLMISRTPEVTCVVVDVSHEDPEVKFNWYVDGVEVHNAKTKPREEQYASTYRVVSVLTVLHQDWLNGKEYKCKVSNKALPAPIEKTISKAKGQPREPQVYTLPPSRCELTKNQVSLSCAVKGFYPSDIAVEWESNGQPENNYKTTPPVLDSDGSFFLVSKLTVDKSRWQQGNVFSCSVMHEALHNHYTQKSLSLSPDYKDDDDK
chain: EPKSSDKTHTCPPCPAPELLGGPSVFLFPPKPKDTLMISRTPEVTCVVVDVSHEDPEVKFNWYVDGVEVHNAKTKPREEQYNSTYRVVSVLTVLHQDWLNGKEYKCKVSNKALPAPIEKTISKAKGQPREPQVCTLPPSRDELTKNQVSLWCLVKGFYPSDIAVEWESNGQPENNYKTTPPVLDSDGSFFLYSKLTVDKSRWQQGNVFSCSVMHEALHNRYTQKSLSLSP
light: DIVMTQSPLSLPVTPGEPASISCRPSQSPVHSNRNTYLHWYQQKPGQAPRLLIYKVSNRFSGVPDRFSGSGSGTDFTLKISRVEAEDVGVYYCTQGTQVPYTFGQGTKLEIKRTVAAPSVFIFPPSDEQLKSGTASVVCLLNNFYPREAKVQWKVDNALQSGNSQESVTEQDSKDSTYSLSSTLTLSKADYEKHKVYACEVTHQGLSSPVTKSFNRGEC
notes: single-arm
On to B4, for which the Kd was determined as 45.3 nM.

B5: TR01H082-E22Hh/none-Hi-Kn010G3/L0262-k0 (antibody, human IgG1, kappa, L234A L235A, N297A)
heavy: QVQLVESGGGLVQPGRSLRLSCAASGFTFSNAWMHWVRQAPGKGLEWVAQIKDKSQNYATYYAESVKGRFTISRDDSKNSLYLQMNSLKTEDTAVYYCRYVHYAAGYGVDAWGQGTTVTVSSASTKGPSVFPLAPSSKSTSGGTAALGCLVKDYFPEPVTVSWNSGALTSGVHTFPAVLQSSGLYSLSSVVTVPSSSLGTQTYICNVNHKPSNTKVDKKVEPKSCDKTHTCPPCPAPEAAGGPSVFLFPPKPKDTLMISRTPEVTCVVVDVSHEDPEVKFNWYVDGVEVHNAKTKPREEQYASTYRVVSVLTVLHQDWLNGKEYKCKVSNKALPAPIEKTISKAKGQPREPQVYTLPPSRCELTKNQVSLSCAVKGFYPSDIAVEWESNGQPENNYKTTPPVLDSDGSFFLVSKLTVDKSRWQQGNVFSCSVMHEALHNHYTQKSLSLSPDYKDDDDK
chain: EPKSSDKTHTCPPCPAPELLGGPSVFLFPPKPKDTLMISRTPEVTCVVVDVSHEDPEVKFNWYVDGVEVHNAKTKPREEQYNSTYRVVSVLTVLHQDWLNGKEYKCKVSNKALPAPIEKTISKAKGQPREPQVCTLPPSRDELTKNQVSLWCLVKGFYPSDIAVEWESNGQPENNYKTTPPVLDSDGSFFLYSKLTVDKSRWQQGNVFSCSVMHEALHNRYTQKSLSLSP
light: DIVMTQSPLSLPVTPGEPASISCRSSQPPVHSNRNTYLHWYQQKPGQAPRLLIYKVSNRFSGVPDRFSGSGSGTDFTLKISRVEAEDVGVYYCAQGTQVPYTFGQGTKLEIKRTVAAPSVFIFPPSDEQLKSGTASVVCLLNNFYPREAKVQWKVDNALQSGNSQESVTEQDSKDSTYSLSSTLTLSKADYEKHKVYACEVTHQGLSSPVTKSFNRGEC
notes: single-arm
The molecule B5 returned a Kd of 39.8 nM.

B6: TR01H082-E22Hh/none-Hi-Kn010G3/L0259-k0 (antibody, human IgG1, kappa, L234A L235A, N297A)
heavy: QVQLVESGGGLVQPGRSLRLSCAASGFTFSNAWMHWVRQAPGKGLEWVAQIKDKSQNYATYYAESVKGRFTISRDDSKNSLYLQMNSLKTEDTAVYYCRYVHYAAGYGVDAWGQGTTVTVSSASTKGPSVFPLAPSSKSTSGGTAALGCLVKDYFPEPVTVSWNSGALTSGVHTFPAVLQSSGLYSLSSVVTVPSSSLGTQTYICNVNHKPSNTKVDKKVEPKSCDKTHTCPPCPAPEAAGGPSVFLFPPKPKDTLMISRTPEVTCVVVDVSHEDPEVKFNWYVDGVEVHNAKTKPREEQYASTYRVVSVLTVLHQDWLNGKEYKCKVSNKALPAPIEKTISKAKGQPREPQVYTLPPSRCELTKNQVSLSCAVKGFYPSDIAVEWESNGQPENNYKTTPPVLDSDGSFFLVSKLTVDKSRWQQGNVFSCSVMHEALHNHYTQKSLSLSPDYKDDDDK
chain: EPKSSDKTHTCPPCPAPELLGGPSVFLFPPKPKDTLMISRTPEVTCVVVDVSHEDPEVKFNWYVDGVEVHNAKTKPREEQYNSTYRVVSVLTVLHQDWLNGKEYKCKVSNKALPAPIEKTISKAKGQPREPQVCTLPPSRDELTKNQVSLWCLVKGFYPSDIAVEWESNGQPENNYKTTPPVLDSDGSFFLYSKLTVDKSRWQQGNVFSCSVMHEALHNRYTQKSLSLSP
light: DIVMTQSPLSLPVTPGEPASISCRSSQSPVHSNRNTYIHWYQQKPGQAPRLLIYKVSNRFSGVPDRFSGSGSGTDFTLKISRVEAEDVGVYYCTQGTQVPYTFGQGTKLEIKRTVAAPSVFIFPPSDEQLKSGTASVVCLLNNFYPREAKVQWKVDNALQSGNSQESVTEQDSKDSTYSLSSTLTLSKADYEKHKVYACEVTHQGLSSPVTKSFNRGEC
notes: single-arm
With B6, binding was put at a Kd of 50.7 nM.
